Experimental data: US20220010021A1 (Sanofi, published 2022)
Positions count from the first letter of the chain named. Names and notes keep the numbering of the source.

B1: 16H7 variant with light chain substitution Q88S (antibody, V domains shown)
VH: not shown
VL: SYVLTQPPSVSVAPGQTARITCGGNNIGSESVHWYQQKPGQAPVLVVYDDSDRPSGIPERFSGSNSGNTATLTISRVEAGDEADYYCSVWDGNSDHVVFGGGTKLTVLG
B2: 16H7 variant with single point mutation V98S in the light chain (antibody, V domains shown)
VH: not shown
VL: B1 VL with S88Q, V98S
notes: Tested from HEK293-F supernatant
B3: 16H7 variant with single point mutation V98K in the light chain (antibody, V domains shown)
VH: not shown
VL: B1 VL with S88Q, V98K
notes: as for B2
B4: 16H7 variant with single point mutation V98W in the light chain (antibody, V domains shown)
VH: not shown
VL: B1 VL with S88Q, V98W
notes: as for B2
B5: 16H7 variant with single point mutation V98L in the light chain (antibody, V domains shown)
VH: not shown
VL: B1 VL with S88Q, V98L
notes: as for B2
B6: 16H7 variant with single point mutation V98R in the light chain (antibody, V domains shown)
VH: not shown
VL: B1 VL with S88Q, V98R
notes: as for B2
B7: 16H7 variant with single point mutation V98G in the light chain (antibody, V domains shown)
VH: not shown
VL: B1 VL with S88Q, V98G
notes: as for B2
B8: 16H7 variant with single point mutation V98T in the light chain (antibody, V domains shown)
VH: not shown
VL: B1 VL with S88Q, V98T
notes: as for B2
B9: 16H7 variant with single point mutation V98A in the light chain (antibody, V domains shown)
VH: not shown
VL: B1 VL with S88Q, V98A
notes: as for B2
B10: 16H7 variant with single point mutation V98Q in the light chain (antibody, V domains shown)
VH: not shown
VL: B1 VL with S88Q, V98Q
notes: as for B2
B11: 16H7 variant with single point mutation V98Y in the light chain (antibody, V domains shown)
VH: not shown
VL: B1 VL with S88Q, V98Y
notes: as for B2
B12: 16H7 variant with single point mutation V98H in the light chain (antibody, V domains shown)
VH: not shown
VL: B1 VL with S88Q, V98H
notes: as for B2
B13: Ab0331 (antibody, human IgG4 S228P, lambda)
heavy: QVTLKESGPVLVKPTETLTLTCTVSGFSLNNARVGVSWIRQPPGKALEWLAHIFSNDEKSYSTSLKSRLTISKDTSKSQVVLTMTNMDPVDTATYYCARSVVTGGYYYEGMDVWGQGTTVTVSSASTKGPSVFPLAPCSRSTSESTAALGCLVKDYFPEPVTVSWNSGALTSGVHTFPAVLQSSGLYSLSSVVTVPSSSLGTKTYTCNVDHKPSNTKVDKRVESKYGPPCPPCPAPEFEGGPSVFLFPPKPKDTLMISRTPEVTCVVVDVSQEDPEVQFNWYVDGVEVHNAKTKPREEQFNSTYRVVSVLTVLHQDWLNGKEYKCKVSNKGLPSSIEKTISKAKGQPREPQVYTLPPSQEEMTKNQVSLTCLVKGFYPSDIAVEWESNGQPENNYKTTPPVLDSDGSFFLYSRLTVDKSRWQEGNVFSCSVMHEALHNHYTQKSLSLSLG
light: SYVLTQPPSVSVAPGQTARITCGGSNIGSESVHWYQQKPGQAPVLVVYSESDRPSGIPERFSGSNSGNTATLTISRVEAGDEADYYCQVWEGESDHVVFGGGTKLTVLGQPKANPTVTLFPPSSEELQANKATLVCLISDFYPGAVTVAWKADGSPVKAGVETTKPSKQSNNKYAASSYLSLTPEQWKSHRSYSCQVTHEGSTVEKTVAPTECS
B14: Ab0335 (antibody, human IgG4 S228P, lambda)
heavy: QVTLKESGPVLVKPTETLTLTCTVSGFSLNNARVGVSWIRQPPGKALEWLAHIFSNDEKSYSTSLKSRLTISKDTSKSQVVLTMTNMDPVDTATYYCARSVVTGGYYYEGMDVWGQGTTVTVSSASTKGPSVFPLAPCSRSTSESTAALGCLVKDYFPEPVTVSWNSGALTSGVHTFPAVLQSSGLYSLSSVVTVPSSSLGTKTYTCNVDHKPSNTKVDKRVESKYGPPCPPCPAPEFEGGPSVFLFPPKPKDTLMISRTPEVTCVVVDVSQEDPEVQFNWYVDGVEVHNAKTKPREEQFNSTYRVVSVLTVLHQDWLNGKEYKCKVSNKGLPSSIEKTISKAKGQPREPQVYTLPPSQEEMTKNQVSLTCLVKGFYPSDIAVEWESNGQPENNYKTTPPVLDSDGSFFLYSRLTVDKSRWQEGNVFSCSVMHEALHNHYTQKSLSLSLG
light: B13 light with E50A
B15: human FGF21 (ligand)
chain: GHPIPDSSPLLQFGGQVRQRYLYTDDAQQTEAHLEIREDGTVGGAADQSPESLLQLKALKPGVIQILGVKTSRFLCQRPDGALYGSLHFDPEACSFRELLLEDGYNVYQSEAHGLPLHLPGNKSPHRDPAPRGPARFLPLPGLPPAPPEPPGILAPQPPDVGSSDPLSMVGPSQGRSPSYAS

Legend:
[1] = target: cell surface receptor composed of FGFR1c and co-receptor beta-Klotho (KLB) on iLite FGF21 Assay Ready Cells (human, UniProt P11362 22-822; Q86Z14 1-1044); test: cell-based or functional assay
Sequence of cell surface receptor composed of FGFR1c and co-receptor beta-Klotho (KLB) on iLite FGF21 Assay Ready Cells (P11362 22-822, chain 1 of 2): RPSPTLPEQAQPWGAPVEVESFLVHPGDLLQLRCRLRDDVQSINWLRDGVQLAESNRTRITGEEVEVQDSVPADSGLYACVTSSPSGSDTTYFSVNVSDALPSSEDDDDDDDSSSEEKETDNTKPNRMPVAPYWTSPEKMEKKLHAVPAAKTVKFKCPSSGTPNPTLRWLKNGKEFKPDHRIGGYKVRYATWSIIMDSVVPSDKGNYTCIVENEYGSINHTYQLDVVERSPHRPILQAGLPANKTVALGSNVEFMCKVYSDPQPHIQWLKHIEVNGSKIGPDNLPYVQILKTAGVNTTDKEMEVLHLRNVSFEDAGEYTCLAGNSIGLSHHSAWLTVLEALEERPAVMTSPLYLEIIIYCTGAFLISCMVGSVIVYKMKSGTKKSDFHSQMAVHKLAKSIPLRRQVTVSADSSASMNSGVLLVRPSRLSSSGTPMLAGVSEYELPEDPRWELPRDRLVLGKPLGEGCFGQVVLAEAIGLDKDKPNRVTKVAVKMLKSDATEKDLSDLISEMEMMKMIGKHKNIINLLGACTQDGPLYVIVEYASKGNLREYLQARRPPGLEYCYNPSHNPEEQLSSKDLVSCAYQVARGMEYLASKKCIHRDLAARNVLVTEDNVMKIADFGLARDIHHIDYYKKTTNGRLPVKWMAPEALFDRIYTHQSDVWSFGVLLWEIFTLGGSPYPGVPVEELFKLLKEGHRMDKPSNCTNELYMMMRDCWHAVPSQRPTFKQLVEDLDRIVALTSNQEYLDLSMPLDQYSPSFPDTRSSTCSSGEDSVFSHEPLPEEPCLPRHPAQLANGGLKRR
Sequence of cell surface receptor composed of FGFR1c and co-receptor beta-Klotho (KLB) on iLite FGF21 Assay Ready Cells (Q86Z14 whole entry, chain 2 of 2): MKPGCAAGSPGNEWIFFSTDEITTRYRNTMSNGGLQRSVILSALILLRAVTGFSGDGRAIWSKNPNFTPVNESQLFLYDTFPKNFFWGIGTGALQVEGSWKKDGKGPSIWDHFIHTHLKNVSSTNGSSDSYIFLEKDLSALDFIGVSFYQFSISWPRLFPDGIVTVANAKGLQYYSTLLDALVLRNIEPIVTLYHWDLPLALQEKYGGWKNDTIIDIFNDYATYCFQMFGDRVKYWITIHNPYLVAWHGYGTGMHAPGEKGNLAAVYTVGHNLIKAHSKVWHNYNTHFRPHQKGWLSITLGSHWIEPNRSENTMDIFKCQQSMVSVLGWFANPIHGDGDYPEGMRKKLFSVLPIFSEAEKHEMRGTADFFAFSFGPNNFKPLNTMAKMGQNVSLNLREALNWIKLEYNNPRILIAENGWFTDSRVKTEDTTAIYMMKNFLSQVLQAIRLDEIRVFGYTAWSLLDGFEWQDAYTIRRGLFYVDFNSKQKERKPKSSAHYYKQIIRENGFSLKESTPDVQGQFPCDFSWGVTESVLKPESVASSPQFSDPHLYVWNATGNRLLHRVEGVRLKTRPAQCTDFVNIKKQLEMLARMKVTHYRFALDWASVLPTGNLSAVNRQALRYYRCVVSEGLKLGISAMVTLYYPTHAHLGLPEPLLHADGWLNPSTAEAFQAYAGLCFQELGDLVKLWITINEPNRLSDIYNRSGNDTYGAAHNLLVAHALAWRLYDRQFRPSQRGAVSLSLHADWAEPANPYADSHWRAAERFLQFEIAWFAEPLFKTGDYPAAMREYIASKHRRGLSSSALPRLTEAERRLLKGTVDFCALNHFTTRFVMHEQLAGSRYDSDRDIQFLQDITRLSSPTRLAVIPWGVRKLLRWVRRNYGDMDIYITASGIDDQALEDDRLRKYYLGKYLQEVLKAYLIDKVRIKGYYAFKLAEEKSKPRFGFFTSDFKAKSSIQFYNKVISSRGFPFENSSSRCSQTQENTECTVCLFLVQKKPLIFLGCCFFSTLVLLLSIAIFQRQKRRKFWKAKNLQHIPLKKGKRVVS

human beta-Klotho (KLB) = target: T1, human beta-Klotho (KLB) (human, UniProt Q86Z14 53-997); test: BLI off-rate screening (Octet HTX), antibody from supernatant on anti-hIgG Fc capture sensors, KLB 5 nmol/L as analyte
T1 construct: the BLI off-rate screen was run with human and with monkey KLB; also called human KLB; ß-Klotho
T1 sequence (looked up): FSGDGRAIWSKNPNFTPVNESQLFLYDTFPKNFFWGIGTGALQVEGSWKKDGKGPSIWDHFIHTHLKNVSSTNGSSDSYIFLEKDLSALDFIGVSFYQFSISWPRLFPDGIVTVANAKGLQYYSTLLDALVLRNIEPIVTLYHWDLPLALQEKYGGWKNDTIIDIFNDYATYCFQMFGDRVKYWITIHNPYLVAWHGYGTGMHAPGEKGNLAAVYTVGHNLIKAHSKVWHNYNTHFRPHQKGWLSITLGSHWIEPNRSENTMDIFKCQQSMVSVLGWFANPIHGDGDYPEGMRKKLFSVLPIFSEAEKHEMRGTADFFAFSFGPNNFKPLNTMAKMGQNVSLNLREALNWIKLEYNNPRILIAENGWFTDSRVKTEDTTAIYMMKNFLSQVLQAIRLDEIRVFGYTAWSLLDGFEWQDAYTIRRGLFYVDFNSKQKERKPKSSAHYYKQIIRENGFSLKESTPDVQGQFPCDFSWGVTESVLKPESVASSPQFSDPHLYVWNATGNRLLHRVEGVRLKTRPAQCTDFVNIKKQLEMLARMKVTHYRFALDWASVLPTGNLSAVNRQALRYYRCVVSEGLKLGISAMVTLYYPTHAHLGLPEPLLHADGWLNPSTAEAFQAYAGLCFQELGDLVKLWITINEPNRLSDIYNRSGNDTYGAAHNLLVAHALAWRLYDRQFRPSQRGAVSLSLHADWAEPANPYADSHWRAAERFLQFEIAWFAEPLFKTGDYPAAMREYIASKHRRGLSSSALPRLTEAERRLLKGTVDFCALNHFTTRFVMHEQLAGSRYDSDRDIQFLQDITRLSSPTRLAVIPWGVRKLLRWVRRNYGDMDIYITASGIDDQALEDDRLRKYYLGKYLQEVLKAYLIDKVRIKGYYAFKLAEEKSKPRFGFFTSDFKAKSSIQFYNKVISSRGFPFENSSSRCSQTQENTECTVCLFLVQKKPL

[2] = target: cell-surface receptor complex of human FGFR1c and beta-Klotho (KLB) on iLite FGF21 reporter cells (human, UniProt P11362 22-822; Q86Z14 1-1044); test: cell-based or functional assay
[3] = target: human FGFR1c/KLB receptor complex on primary human adipocytes (human, UniProt P11362 22-822; Q86Z14 1-1044); test: cell-based or functional assay
Sequence of human FGFR1c/KLB receptor complex on primary human adipocytes (P11362 22-822, chain 1 of 2): as the sequence (P11362 22-822, chain 1 of 2) above
Sequence of human FGFR1c/KLB receptor complex on primary human adipocytes (Q86Z14 whole entry, chain 2 of 2): as the sequence (Q86Z14 whole entry, chain 2 of 2) above

Row | Binder | Mean E max [1] [%] | koff (human beta-Klotho (KLB)) [s⁻¹] | Mean E max (%), Luciferase gene reporter assay [2] [%] | Mean EC50 (nM), Luciferase gene reporter assay [2] [nM] | In-Cell Western pERK EC50, primary human adipocytes [3] [nmol/L]
1 | B1 | 104 | – | – | – | –
2 | B2 | – | 3.9e-05 | 107 | 0.094 | –
3 | B3 | – | 9e-05 | 106 | 0.111 | –
4 | B4 | – | 5.6e-05 | 99 | 0.099 | –
5 | B5 | – | 0.00013 | 105 | 0.121 | –
6 | B6 | – | 0.00011 | 99 | 0.099 | –
7 | B7 | – | 1.1e-05 | 105 | 0.118 | –
8 | B8 | – | 3.1e-05 | 99 | 0.088 | –
9 | B9 | – | 4.6e-05 | 99 | 0.139 | –
10 | B10 | – | 3.7e-05 | 111 | 0.121 | –
11 | B11 | – | 5.9e-05 | 100 | 0.109 | –
12 | B12 | – | 1.8e-05 | 103 | 0.107 | –
13 | B13 | – | – | – | – | 0.101
14 | B14 | – | – | – | – | 0.142
15 | B15 | – | – | – | – | 0.206
